EP3443010B1 (Ose Immunotherapeutics, dated 2024)
Substitutions are numbered along the chain they refer to. “And” between values parts separate entries of the source, which are not always exact repeats. Equal values may be shown once.

B1: chimeric mouse/human 18D5 antibody (antibody, human IgG4 S228P, kappa)
heavy: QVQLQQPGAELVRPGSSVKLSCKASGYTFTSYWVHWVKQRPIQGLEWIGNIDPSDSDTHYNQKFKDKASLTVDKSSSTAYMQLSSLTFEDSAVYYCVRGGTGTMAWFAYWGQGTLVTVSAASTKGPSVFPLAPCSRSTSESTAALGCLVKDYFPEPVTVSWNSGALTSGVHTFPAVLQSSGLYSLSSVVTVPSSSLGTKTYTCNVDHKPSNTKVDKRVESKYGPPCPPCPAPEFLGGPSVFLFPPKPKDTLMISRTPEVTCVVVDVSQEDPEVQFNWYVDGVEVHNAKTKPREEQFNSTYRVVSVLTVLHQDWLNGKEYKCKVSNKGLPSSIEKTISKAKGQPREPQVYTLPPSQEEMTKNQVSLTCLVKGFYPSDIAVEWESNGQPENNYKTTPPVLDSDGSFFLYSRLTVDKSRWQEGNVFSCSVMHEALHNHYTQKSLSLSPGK
light: DVVMTQTPLSLPVSLGDQASISCRSSQSLVHSYGNTYLYWYLQKPGQSPKLLIYRVSNRFSGVPDRFSGSGSGTDFTLKISRVEAEDLGVYFCFQGTHVPYTFGSGTKLEIKRTVAAPSVFIFPPSDEQLKSGTASVVCLLNNFYPREAKVQWKVDNALQSGNSQESVTEQDSKDSTYSLSSTLTLSKADYEKHKVYACEVTHQGLSSPVTKSFNRGEC
notes: also called chimeric 18D5; the chimeric antibody
B2: HFLA (antibody, human IgG4 S228P, kappa, V domains shown)
VH: EVQLVQSGAEVKKPGESLRISCKASGYSFTSYWVHWVRQMPGKGLEWMGNIDPSDSDTHYSPSFQGHVTLSVDKSISTAYLQLSSLKASDTAMYYCVRGGTGTMAYFAYWGQGTLVTVSS
VL: DVVMTQSPLSLPVTLGQPASISCRSSQSLVHSYGNTYLYWYQQRPGQSPRLLIYRVSNRFSGVPDRFSGSGSGTDFTLKISRVEAEDVGVYFCFQGTHVPYTFGGGTKVEIKR
notes: also called humanized 18D5 variant HFLA
B3: HFLB (antibody, human IgG4 S228P, kappa, V domains shown)
VH: B2 VH
VL: B2 VL with Y41F, F92Y
notes: also called humanized 18D5 variant HFLB
B4: HEFLB (antibody, human IgG4 S228P, kappa, V domains shown)
VH: B2 VH with M104L
VL: B2 VL with Y41F, F92Y
notes: also called humanized 18D5 variant HEFLB; anti-SIRPa HEFLB
B5: HEFLA (antibody, human IgG4 S228P, kappa, V domains shown)
VH: B2 VH with M104L
VL: B2 VL
notes: also called humanized 18D5 variant HEFLA
B6: mouse antibody 18D5 (antibody, mouse IgG2b, kappa)
heavy: QVQLQQPGAELVRPGSSVKLSCKASGYTFTSYWVHWVKQRPIQGLEWIGNIDPSDSDTHYNQKFKDKASLTVDKSSSTAYMQLSSLTFEDSAVYYCVRGGTGTMAWFAYWGQGTLVTVSAAKTTPPSVYPLAPGCGDTTGSSVTLGCLVKGYFPESVTVTWNSGSLSSSVHTFPALLQSGLYTMSSSVTVPSSTWPSQTVTCSVAHPASSTTVDKKLEPSGPISTINPCPPCKECHKCPAPNLEGGPSVFIFPPNIKDVLMISLTPKVTCVVVDVSEDDPDVQISWFVNNVEVHTAQTQTHREDYNSTIRVVSTLPIQHQDWMSGKEFKCKVNNKDLPSPIERTISKIKGLVRAPQVYILPPPAEQLSRKDVSLTCLVVGFNPGDISVEWTSNGHTEENYKDTAPVLDSDGSYFIYSKLNMKTSKWEKTDSFSCNVRHEGLKNYYLKKTISRSPGK
light: DVVMTQTPLSLPVSLGDQASISCRSSQSLVHSYGNTYLYWYLQKPGQSPKLLIYRVSNRFSGVPDRFSGSGSGTDFTLKISRVEAEDLGVYFCFQGTHVPYTFGSGTKLEIKRADAAPTVSIFPPSSEQLTSGGASVVCFLNNFYPKDINVKWKIDGSERQNGVLNSWTDQDSKDSTYSMSSTLTLTKDEYERHNSYTCEATHKTSTSPIVKSFNRNEC
notes: also called m18D5; m18D5 clone

What was measured:
[1] = biological target: T1, Recombinant hSIRPb-His (Antibodies-online, reference ABIN3077231) (human, UniProt Q5TFQ8 30-371); assay: Blitz (BLI), SIRPb-His on Ni-NTA biosensor, antibody at 20 ug/mL
T1 construct: also called human SIRPb recombinant protein (Blitz); not shown: His tag (histidine tail)

[2] = biological target: T2, SIRPg on peripheral human CD3+ T cells (human, UniProt Q9P1W8 29-387); assay: flow cytometry on human CD3+ T cells, percent positive cells
T2 construct: whole, on cells; also called T cells that are known to express SIRPγ; human T cells

[3] = biological target: T3, Recombinant hSIRPg-His (Sino Biologicals, reference 11828-H08H) (human, UniProt Q9P1W8 29-360); assay: Blitz (BLI), SIRPg-His on Ni-NTA biosensor, antibody at 20 ug/mL
T3 construct: also called human SIRPg recombinant protein; not shown: His tag (histidine tail)

[4] = biological target: T4, recombinant hSIRPa (Sino Biologicals, reference 10975-H08H) (human, UniProt P78324 31-370); assay: ELISA, hSIRPa (Sino 10975-H08H) coated at 0.5 ug/ml, anti-mouse Fc detection
T4 construct: A different catalogue item from m21; also called SIRPa-His (ELISA with the mouse antibodies)
T4 sequence (P78324 other isoform, or with tags, fused parts or gaps H08H H08H): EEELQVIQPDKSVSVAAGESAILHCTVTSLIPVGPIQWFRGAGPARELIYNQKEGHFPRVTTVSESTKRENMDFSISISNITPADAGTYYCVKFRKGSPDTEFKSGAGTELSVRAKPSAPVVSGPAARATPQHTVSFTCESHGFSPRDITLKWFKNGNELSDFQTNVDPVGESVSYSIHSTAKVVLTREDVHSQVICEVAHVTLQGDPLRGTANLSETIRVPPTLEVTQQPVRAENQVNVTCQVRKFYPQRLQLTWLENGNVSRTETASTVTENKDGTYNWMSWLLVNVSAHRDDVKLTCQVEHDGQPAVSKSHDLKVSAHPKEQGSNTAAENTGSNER

T1 sequence (Q5TFQ8 30-371): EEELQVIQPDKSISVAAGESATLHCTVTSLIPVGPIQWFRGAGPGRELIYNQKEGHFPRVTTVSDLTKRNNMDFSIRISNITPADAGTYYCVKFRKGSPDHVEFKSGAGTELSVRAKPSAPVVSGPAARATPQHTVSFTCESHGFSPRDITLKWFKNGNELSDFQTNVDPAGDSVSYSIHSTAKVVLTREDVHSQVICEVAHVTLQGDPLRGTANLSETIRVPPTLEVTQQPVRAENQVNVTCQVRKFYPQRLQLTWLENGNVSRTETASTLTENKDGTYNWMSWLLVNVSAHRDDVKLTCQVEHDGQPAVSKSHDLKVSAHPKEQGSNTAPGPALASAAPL
T2 sequence (Q9P1W8 29-387): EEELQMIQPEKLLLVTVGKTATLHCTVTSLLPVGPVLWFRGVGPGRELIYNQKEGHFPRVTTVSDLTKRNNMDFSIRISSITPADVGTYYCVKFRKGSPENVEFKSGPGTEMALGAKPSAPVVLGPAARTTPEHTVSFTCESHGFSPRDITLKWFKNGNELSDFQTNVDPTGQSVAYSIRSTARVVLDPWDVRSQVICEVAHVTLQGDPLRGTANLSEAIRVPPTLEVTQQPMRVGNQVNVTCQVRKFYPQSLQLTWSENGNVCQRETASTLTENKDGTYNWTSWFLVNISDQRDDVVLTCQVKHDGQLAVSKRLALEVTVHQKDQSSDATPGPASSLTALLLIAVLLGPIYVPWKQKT
T3 sequence (Q9P1W8 29-360 limits assumed): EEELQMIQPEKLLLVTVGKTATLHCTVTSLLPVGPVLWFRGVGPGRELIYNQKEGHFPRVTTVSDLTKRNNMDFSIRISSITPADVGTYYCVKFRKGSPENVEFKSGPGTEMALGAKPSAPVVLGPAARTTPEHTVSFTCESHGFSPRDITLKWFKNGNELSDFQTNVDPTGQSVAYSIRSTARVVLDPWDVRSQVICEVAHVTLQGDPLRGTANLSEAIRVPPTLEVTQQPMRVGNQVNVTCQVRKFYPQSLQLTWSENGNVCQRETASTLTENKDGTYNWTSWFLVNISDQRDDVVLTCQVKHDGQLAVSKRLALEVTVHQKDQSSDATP

Binder	binding result [1]	other results
B1	binds	binding result [2]: no binding (tested: 10 micrograms/ml)
B2	binds	–
B3	binds	Kd [3]: 104 nM
B4	binds	–
B5	binds	–
B6	–	EC50 [4]: 0.06 nM and 0.009 µg/mL
